Measurements from the supplement of paper PMC7877785.
± gives the uncertainty stated by the source.

Assay: self-splicing fitness, log relative to wild type (ln ratio); higher = more splicing; Tetrahymena group I intron in knt gene, E. coli kanamycin selection, DiMSum; sequences stand for … in CUCUCU…GGAGGGAAAAGUUAUCAGGCAUGCACCUGGUAGCUAGUCUUUAAACCAAUAGAUUGCAUCGGUUUAAAAGGCAAGACCGUCAAAUUGCGGGAAAGGGGUCAACAGCCGUUCAGUACCAAGUCUCAGGGGAAACUUUGAGAUGGCCUUGCAAAGGGUAUGGUAAUAAGCUGACGGACAUGGUCCUAACCACGCAGCCAAGUCCUAAGUCAACAGAUCUUCUGUUGAUAUGGAUGCAGUUCACAGACUAAAUGUCGGUCGGGGAAGAUGUAUUCUUCUCAUAAGAUAUAGUCGGACCUCUCCUUAAUGGGAGCUAGCGGAUGAAGUGAUGCAACACUGGAGCCGCUGGGAACUAAUUUGUAUGCGAAAGUAUAUUGAUUAGUUUUGGAGUACUCGUGGUCG
Method in brief: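 DiMSum derived fitness as the error-weighted combination of fold changes across replicates, kanamycin versus no kanamycin, normalised to wild type. E. coli BL21(DE3) held the library, which randomised all eight P1ex-region intron nucleotides within the knt kanamycin-resistance gene on pET-22b(+). Six replicate transformations grew overnight at 37°C or 30°C on LB agar with or without 25 μg/mL kanamycin, also containing 100 μg/mL carbenicillin, 50 μM IPTG and 0.2% rhamnose, and pooled colonies were amplicon-sequenced on an Illumina HiSeq 2500.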

Sequence | self-splicing fitness (ln) (30 °C) | self-splicing fitness (ln) (37 °C)
ACCUAGCAAUAUUACGCUAC | -2.93 ± 0.13 | -2.02 ± 0.15
UGCUAGCAAUAUUACGCACA | -1.12 ± 0.13 | 0.22 ± 0.11
CGCUAGCAAUAUUACGGACA | -0.438 ± 0.14 | -0.65 ± 0.13
CAGCAGCAAUAUUACGGGGG | -1.63 ± 0.076 | -1.54 ± 0.11
UUACAGCAAUAUUACGGGGC | -3.36 ± 0.48 | -1.17 ± 0.45
AAGAAGCAAUAUUACGCUGC | -2.58 ± 0.32 | -1.75 ± 0.35
ACGAAGCAAUAUUACGCCAU | -4.46 ± 0.39 | -3.02 ± 0.26
AUUAAGCAAUAUUACGUUAC | -2.99 ± 0.26 | -1.16 ± 0.27
AUCGAGCAAUAUUACGCCGG | -1.43 ± 0.22 | -1.57 ± 0.3
UUCCAGCAAUAUUACGGUGU | -1.19 ± 0.092 | -1.1 ± 0.13
GUGCAGCAAUAUUACGAGAA |  | -2.25 ± 0.3
AGUAAGCAAUAUUACGUUCG | -1.92 ± 0.14 | -1.17 ± 0.17
GGAAAGCAAUAUUACGGAGU | -3.76 ± 0.23 | -1.73 ± 0.18
CACAAGCAAUAUUACGACCU | -1.71 ± 0.19 | -2.1 ± 0.2
CACCAGCAAUAUUACGCCAU | -3.39 ± 0.31 | -2.03 ± 0.29
GAGGAGCAAUAUUACGUCAC | -2.85 ± 0.25 | 
CAUCAGCAAUAUUACGGAAU | -2.46 ± 0.12 | -2.11 ± 0.11
UGUUAGCAAUAUUACGUACU | 0.199 ± 0.2 | 0.344 ± 0.18
GACAAGCAAUAUUACGCUUU | -3.43 ± 0.42 | -2.11 ± 0.32
GCGUAGCAAUAUUACGUGAC | -2.29 ± 0.29 | -1.15 ± 0.28
UCAGAGCAAUAUUACGUAAA | -2.65 ± 0.15 | -1.95 ± 0.25
AGAGAGCAAUAUUACGGGAG | -2.6 ± 0.4 | 
CGAUAGCAAUAUUACGUCUU | -1.49 ± 0.13 | -0.12 ± 0.13
GACAAGCAAUAUUACGUUAA | -2.19 ± 0.12 | -1.71 ± 0.15
AACGAGCAAUAUUACGUCAG | -3.08 ± 0.29 | -2.97 ± 0.34

Sequence | self-splicing fitness (ln) (30 °C) | self-splicing fitness (ln) (37 °C)
UCAUAGCAAUAUUACGGACU | -2.63 ± 0.18 | -3.18 ± 0.43
AUAGAGCAAUAUUACGGGCA | -2.19 ± 0.097 | -1.28 ± 0.11
UUGCAGCAAUAUUACGUCCA | -0.493 ± 0.1 | 0.00855 ± 0.088
GCGCAGCAAUAUUACGAGUG | -1.6 ± 0.1 | -1.47 ± 0.15
GAAAAGCAAUAUUACGUUAC | -2.67 ± 0.12 | -1.84 ± 0.13
AGGUAGCAAUAUUACGUUUU | -2.585 ± 0.016 | -1.54 ± 0.034
AAAGAGCAAUAUUACGCCUC | -0.411 ± 0.27 | 
GUUUAGCAAUAUUACGCCGU | -2.03 ± 0.13 | -0.93 ± 0.14
UAAAAGCAAUAUUACGGCUU | -0.922 ± 0.088 | -0.468 ± 0.11
GAGGAGCAAUAUUACGAGUU | -3.46 ± 0.35 | -2.05 ± 0.21
AUAUAGCAAUAUUACGCGUA | -1.11 ± 0.19 | -0.256 ± 0.13
CGUUAGCAAUAUUACGCUCG | -1.41 ± 0.14 | -1.38 ± 0.18
GGCAAGCAAUAUUACGUUAA | -1.09 ± 0.1 | -0.115 ± 0.1
CGAUAGCAAUAUUACGCACA | -0.708 ± 0.088 | -0.0385 ± 0.12
CGUAAGCAAUAUUACGACUC | -3.64 ± 0.3 | -0.95 ± 0.17
GCAGAGCAAUAUUACGUUCU | -2.78 ± 0.24 | -2.18 ± 0.29
GUUGAGCAAUAUUACGCUAU | -2.06 ± 0.35 | -2.66 ± 0.46
UCAAAGCAAUAUUACGCGCG | -0.683 ± 0.082 | 0.256 ± 0.097
AAAGAGCAAUAUUACGUAGG | -3.36 ± 0.15 | -2.76 ± 0.25
UCCAAGCAAUAUUACGUACG | -3.53 ± 0.19 | -1.76 ± 0.16
UUUGAGCAAUAUUACGUAAC | -2.01 ± 0.5 | 
ACAGAGCAAUAUUACGUAAU | -3.43 ± 0.4 | -2.5 ± 0.41
AUUCAGCAAUAUUACGGCGA | -0.392 ± 0.078 | -0.501 ± 0.084
AUUCAGCAAUAUUACGGAGG | -2.29 ± 0.13 | -1.13 ± 0.13
AACAAGCAAUAUUACGAACG | -1.33 ± 0.11 | -0.418 ± 0.13

Sequence | self-splicing fitness (ln) (30 °C) | self-splicing fitness (ln) (37 °C)
AGGGAGCAAUAUUACGAGCU | -3.49 ± 0.29 | 
AAAUAGCAAUAUUACGUAUU | -2.56 ± 0.11 | -0.844 ± 0.094
AGUAAGCAAUAUUACGUAAU | -3.15 ± 0.16 | -2.2 ± 0.17
CGGUAGCAAUAUUACGACUC | -1.01 ± 0.32 | 1.23 ± 0.43
GUCCAGCAAUAUUACGAAUA | 0.0949 ± 0.13 | -0.595 ± 0.15
AGGAAGCAAUAUUACGAUCA | -0.344 ± 0.091 | -0.31 ± 0.09
CAAAAGCAAUAUUACGUAAC | -3.75 ± 0.18 | -2.62 ± 0.3
UUAAAGCAAUAUUACGACCA | -0.0875 ± 0.22 | 0.312 ± 0.25
UGCUAGCAAUAUUACGCAAU | -3.02 ± 0.3 | -2.31 ± 0.29
CAGUAGCAAUAUUACGAGCA | -2.59 ± 0.3 | -2.3 ± 0.27
GUCUAGCAAUAUUACGGUUC | -0.596 ± 0.089 | 0.433 ± 0.096
CUACAGCAAUAUUACGAGCC | -2.24 ± 0.24 | -1.88 ± 0.31
AGUUAGCAAUAUUACGUUCC | -0.837 ± 0.14 | -0.127 ± 0.18
UAUGAGCAAUAUUACGAUAA | -3.74 ± 0.33 | -2.74 ± 0.27
UAGUAGCAAUAUUACGCUGA | -2.25 ± 0.39 | -0.637 ± 0.11
CAGUAGCAAUAUUACGCAAU | -1.7 ± 0.39 | 
CCCUAGCAAUAUUACGCUCA |  | -2.67 ± 0.36
CGAUAGCAAUAUUACGGCUG | -0.568 ± 0.1 | 0.209 ± 0.15
AGCCAGCAAUAUUACGGGCC | -2.77 ± 0.2 | -3.49 ± 0.46
CUGGAGCAAUAUUACGGAAG | -3.48 ± 0.41 | -1.45 ± 0.28
CUGAAGCAAUAUUACGAGGA | -3.46 ± 0.17 | -1.95 ± 0.2
CUUAAGCAAUAUUACGGUCU | -4.28 ± 0.26 | -2.64 ± 0.29
CUGUAGCAAUAUUACGAGCG | -0.681 ± 0.094 | 0.0625 ± 0.12
CUAAAGCAAUAUUACGUAUA | -3.23 ± 0.14 | -3.09 ± 0.28
CUAAAGCAAUAUUACGCGCG | 0.227 ± 0.072 | -0.176 ± 0.095

Sequence | self-splicing fitness (ln) (30 °C) | self-splicing fitness (ln) (37 °C)
UUCAAGCAAUAUUACGGGAA | -1.32 ± 0.11 | -0.286 ± 0.094
GUGUAGCAAUAUUACGGCGG | -2.81 ± 0.23 | -1.6 ± 0.19
CUGUAGCAAUAUUACGCAAG | -2.47 ± 0.12 | -1.56 ± 0.11
AUUCAGCAAUAUUACGGCGU | 0.256 ± 0.057 | 0.488 ± 0.074
AGGCAGCAAUAUUACGCGAA | -1.54 ± 0.095 | -0.675 ± 0.13
CCGCAGCAAUAUUACGGCUG | -3.8 ± 0.29 | -2.45 ± 0.27
UCCAAGCAAUAUUACGACGA | -0.735 ± 0.07 | 0.11 ± 0.096
UGAAAGCAAUAUUACGAUCA | -0.309 ± 0.084 | -0.381 ± 0.1
ACAAAGCAAUAUUACGAGGA | -3.04 ± 0.2 | -2.07 ± 0.19
GCUUAGCAAUAUUACGGGCU | -2.79 ± 0.21 | -3.26 ± 0.23
UCAGAGCAAUAUUACGCCUA | -2.28 ± 0.25 | -1.61 ± 0.26
CCUUAGCAAUAUUACGUUCU | -4.18 ± 0.46 | -1.5 ± 0.34
AUCUAGCAAUAUUACGCCAA |  | -0.995 ± 0.48
AUUUAGCAAUAUUACGUUCA | -0.355 ± 0.17 | -0.395 ± 0.18
GUGCAGCAAUAUUACGGAUU | -1.66 ± 0.12 | -0.37 ± 0.11
GCAGAGCAAUAUUACGUGAC | -2.91 ± 0.12 | -1.54 ± 0.11
UCAGAGCAAUAUUACGGCUG | -2.49 ± 0.19 | -0.448 ± 0.2
CAACAGCAAUAUUACGUUGA | -3.22 ± 0.12 | -3.19 ± 0.15
GCGAAGCAAUAUUACGCAUC | -4.03 ± 0.44 | -1.78 ± 0.23
GAUAAGCAAUAUUACGGGGA |  | -2.16 ± 0.23
CCUUAGCAAUAUUACGGUGC | -3.75 ± 0.19 | -3.01 ± 0.25
AACUAGCAAUAUUACGACAG | -1.7 ± 0.14 | -0.514 ± 0.13
UUUUAGCAAUAUUACGAUGC |  | -2.46 ± 0.38
